14 molecules from patent US20180346555A1 (Regeneron, published 2018) can be followed below.

T1: natural Bet v 1 (Betula verrucosa (Betula pendula), UniProt P15494 2-160)
T1 construct: Bought natural protein; also called nBet v 1
T1 chain: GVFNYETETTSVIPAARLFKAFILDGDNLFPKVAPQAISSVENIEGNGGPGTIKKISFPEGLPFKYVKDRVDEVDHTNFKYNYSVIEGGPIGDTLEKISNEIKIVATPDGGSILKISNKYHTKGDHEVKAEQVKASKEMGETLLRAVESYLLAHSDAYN

T2: Hazel (Cor A 1, MyBiosource, Cat# MBS5304600) (Hazel, UniProt Q08407 2-160, limits assumed)
T2 construct: Bought reagent
T2 sequence (looked up): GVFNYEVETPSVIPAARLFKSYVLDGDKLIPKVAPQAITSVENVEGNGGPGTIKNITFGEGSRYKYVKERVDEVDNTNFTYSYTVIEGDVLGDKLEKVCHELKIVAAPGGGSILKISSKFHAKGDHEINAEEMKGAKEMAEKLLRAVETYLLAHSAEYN

B1: H4H17067P2 (antibody, human IgG4, V domains shown)
VH: EVQLVQSGAEVKKPGESLKISCSGSGYRFTNYWIAWVRQMPGKGLEWMGLIHPDDSDIRYSPSFQGQVTFSVDKSINTAYLQWSSLKASDTAMYYCTRQDGILWSHNAWFDPWGQGTLVTVSS
VL: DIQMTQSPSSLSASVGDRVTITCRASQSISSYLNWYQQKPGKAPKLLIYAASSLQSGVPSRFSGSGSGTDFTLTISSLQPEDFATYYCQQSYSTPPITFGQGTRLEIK
B2: H4H17027P (antibody, human IgG4, V domains shown)
VH: EVQLVESGGGLVQPGGSLRLSCAASGFTFRNYAMHWVRQAPGEGLEWVAAIYRNSDSIDYADSVKGRFTISRDNAKNSLYLQMNSLKTEDTALYYCAKDEGFLEYFDSWGQGTLVTVSS
VL: EIVLTQSPGTLSLSPGERASLSCRASQSVSSSFLAWYQQKPGQAPRLLIYGVSSRFIGIPDRFSGGGSGTDFTLTITRLEPEDFAVYYCQQYGRSPWTFGQGTKVEIK
B3: H4H17015P (antibody, human IgG4, V domains shown)
VH: QVQLQESGPGLVKPSQTLSLTCTVSGGSISSADHYWSWIRQQPGKGLEWIGYISYRGTTYYNPTLESRVSISVDTFKNQFSLMLHSVTVADTAVYYCAKVLQGLVRFRDYGFDVWGQGTTVTVSS
VL: DIQLTQSPPFLSASVGDRVTITCWASQDISSYLAWYQQNPGKSPKLLIYDAFTLHTGVPSRFSGSGSGTEFTLTISSLQPEDFATFYCQHLYSFPFTFGPGTKVDIK
B4: H4H17045P2 (antibody, human IgG4, V domains shown)
VH: EVQLVESGGGLVQPGVSLRLSCVASGFTFSNYDITWIRQIPGKGLEWVSRISGSGGSTYFADSVKGRFIISRDNSKNTVYMQMNSLRAEDSAVYYCARRDSVLFSMNSWLDPWGQGTLVTVSS
VL: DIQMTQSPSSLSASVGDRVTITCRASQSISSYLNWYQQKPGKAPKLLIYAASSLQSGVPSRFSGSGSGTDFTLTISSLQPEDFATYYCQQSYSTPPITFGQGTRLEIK
B5: H4H17028P (antibody, human IgG4, V domains shown)
VH: QVQLVESGGGVVQPGRSLRLSCAASGFTFSRYAIHWVRQAPGKGLEWVAVISYDGDDKYYGDSVKGRFTISRDNSKTMVYLHMNSLRTEDTAVYYCAKDGYSLYGKDYFDYWGQGTLVTVSS
VL: EIVLTQSPGTLPLSPGERATLSCRASQSITNSYLAWYQQKPDQAPRLLIYGASSRATGIPDRFSGSESGTDFTLTISRLEPEDFAVYYCQQYVRSPWTFGQGTKVEIK
B6: H4H17033P (antibody, human IgG4, V domains shown)
VH: QVQLVQSGAEVKKPGASVKVSCKASGYTFAAHYMHWVRQAPGQGLEWMGWINTYTGGTNYGQKFQGRVTMTRDTSITTAYMELSRLRSDDTAVYYCARDRRNWNFVFEYWGQGTLVTVSS
VL: DIQMTQSPSSLSASVGDRVTISCRASQNIKNYLNWYQQKPGKAPKLLIYEASNLQSGAPSRFSGSGSGTDFTLTISSLEPEDFATYYCQQSFSIPWTFGQGTKVEIK
B7: H4H17001P (antibody, human IgG4, V domains shown)
VH: QVQLVESGGGLVKPGGSLRLSCAASGFTFSDYYMNWIRQAPGKGLEWISLISSSGSAIYYSDSVKGRFTISRDNARKSLYLQVNSLRAEDTAVYYCARDRGEWALGAYYYGLDVWGQGTTVTVSS
VL: DIVMTQSPLSLPVTPGEPASISCRSSQSLLHSDGYNYLDWYLQKSGQSPQLLIYLGSNRASGVPDRFSGSGSGTDFTLKISRMEAEDVGVYYCMQALQTPYTFGQGTKLEIK
B8: H4H16946P (antibody, human IgG4, V domains shown)
VH: EVQLVESGGGLVQPGGSLRLSCVASGFTFSNYDMNWVRQAPGEGLEWISYISYSDHNIYYIDSVKGRFTISRDNAKNSLYLQMNSLRAEDTAIYYCAREALASSSFDYWGQGTLVTVSS
VL: EIVMTQSPATLSVSPGERVTLSCRASQSVSGNLAWYQQKPGQAPRLLIYSASTGATGVPARFSGSGSGTEFTLTISSLQSEDFALYYCQQYNKWPRTIGQGTKVEIK
notes: Fully human antibody with human IgG4 Fc (H4H prefix)
B9: H4H16979P (antibody, human IgG4, V domains shown)
VH: QVQLVQSGAEVKKPGASVKVSCKASGYTFIAYYLHWVRQAPGQGLEWMGLLNPYTGGSYYTQKFQGRVTMTRDTSIDTAYMELNSLRSDDTAIYYCARDKRSYYIPYAFEIWGQGTMVTVSS
VL: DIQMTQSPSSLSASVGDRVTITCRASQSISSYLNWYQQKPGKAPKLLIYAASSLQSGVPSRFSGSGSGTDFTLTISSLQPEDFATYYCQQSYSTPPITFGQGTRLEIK
notes: as for B8
B10: H4H16971P (antibody, human IgG4, V domains shown)
VH: QVQLVESGGGVVQPGRSLRLSCAASGFTFSSYGLHWVRQAPGKGLEWVAVISDDGSYKFYADSMKGRFTISRDNSKNTLYLQMNSLRAEDTAVYYCAKDRGRSGWYYFDYWGQGTLVTVSS
VL: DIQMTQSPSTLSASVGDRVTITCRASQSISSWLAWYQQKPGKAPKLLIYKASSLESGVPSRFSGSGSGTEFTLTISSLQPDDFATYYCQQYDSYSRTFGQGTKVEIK
notes: as for B8
B11: H4H16960P (antibody, human IgG4, V domains shown)
VH: QLQLQESGPGLVRPSETLSLTCTVSGGSISSSNYWWGWIRQPPGKGLEWIGSIYYSGITYYNPSLKSRVTISADTSKDQFSLKLRSVTAADTAVYYCAKLEWLRLDFWGQGTTVTVSS
VL: DIQMTQSPSSVSASVGDRVTITCRASQGISSWLVWYQQKPGKVPKLLIYAASSLQSGVPLRFSGSGSGTDFTLTISSLQPEDFATYYCQQAKSFPLTFGQGTRLEIK
notes: as for B8
B12: H4H16943P (antibody, human IgG4, V domains shown)
VH: EVQLVESGGGLVQPGGSLRLSCTASGFMSSMYWMSWVRQAPGKGLEWVSNIKQDGTEKNYVESVKGRFTISRDNAKNSLYLQINSLRGEDTAVYYCARDLYSSSSGYYYYGLDVWGQGTTVTVSS
VL: DIVMTQSPLSLPVTPGEPASISCRSSQSLLHSNKYNYLDWYLQKPGQSPQLLIYLSSNRASGVPDRFSGSGSGTEFTLKISRVEAEDVGIYYCMQALHTPLTFGGGTKVEIK
notes: as for B8
B13: H4H16950P (antibody, human IgG4, V domains shown)
VH: QVQLVQSGAEVKKPGASVKVSCKTSGYTFTNYGITWVRQAPGQGLEWMGWISAYNGNTNYAQNVQGRVTMTTDTSTSTAYMEVRSLRSDDTAVYYCARRSSMLHFQHWGQGTLVTVSS
VL: DIVMTQSPDSLAVSLGERATINCKSSQHVLYDSSNENYLAWFQQKPGQPPKLLIYWASTRESGVPDRFSGSGSGTDFTLTISSLQAEDVAVYYCQQYSSAPYTFGQGTKLEIK
notes: as for B8
B14: H4H16967P (antibody, human IgG4, V domains shown)
VH: QVQLVESGGGVVQPGRSLRLSCAASGFTFSSYGMHWFRQAPGKGLEWVGVIWSDGSDKKYADSVKGRFTISRDNSKNTLYLLMNSLRDDDTAVYHCAREGGFLYSSSSHFDYWGQGTLVTVSS
VL: AIQMTQSPSSLSASVGDRVTITCRTSQGIRNDLGWYQQKPGKAPKLLIFAASSLQSGVPSRFSGSGSGTDFTLTISSLQPEDFAIYYCLQDYKYPFTFGGGTKVEIK
notes: as for B8

The first experiment deals with T1, natural Bet v 1. The experiment can be described thus: SPR Biacore 4000, mAb captured on anti-human Fc, 25C.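 Further: purified anti-Bet v 1 mAbs probed with natural Bet v 1 in HBS-ET buffer (HEPES, NaCl, EDTA, Tween-20) at pH 7.4.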
Experimental: (§1) Equilibrium dissociation constants (KD) for natural Bet v 1 binding to purified anti-Bet v 1 monoclonal antibodies were determined using a real-time surface plasmon resonance biosensor (SPR-Biacore) on a Biacore 4000 instrument. All binding studies were performed in 10 mM HEPES, 150 mM NaCl, 3 mM EDTA, and 0.05% v/v surfactant Tween-20, pH 7.4 (HBS-ET) running buffer at 25° C. and 37° C. […] Association (kₐ) and dissociation (kd) rate constants were determined by fitting the real-time binding sensorgrams to a 1:1 binding model with mass transport limitation using Scrubber 2.0c curve-fitting software. Binding dissociation equilibrium constants (KD) and dissociative half-lives (t½) were calculated from the kinetic rate constants as:
The Kd is the equilibrium constant for the complex coming apart. Lower therefore signals tighter binding. One may read the koff as the rate constant with which the complex falls apart. Read a high koff as a short-lived complex. As usually defined, the kon is the rate constant with which the complex forms. Usually t½ stands for the time in which the quantity being followed falls by half. Lower therefore signals fast loss. Regarding B1, the “100 nM natural Bet v 1 Bound (RU)” value amounted to 58 RU, the equilibrium dissociation constant (Kd) was 3.56 nM, the koff stood at 0.000402 s⁻¹ and the kon is 113000 M⁻¹ s⁻¹. This molecule also returned a t½ of 29 min.

Regarding B2, the “100 nM natural Bet v 1 Bound (RU)” value is 48 RU, binding was characterised by a dissociation constant (Kd) of 4.32 nM, the dissociation rate constant (koff) is 0.00027 s⁻¹ and the kon was 62400 M⁻¹ s⁻¹. This molecule displayed a t½ of 43 min.

With B3, the “100 nM natural Bet v 1 Bound (RU)” value came to 68 RU, the dissociation constant Kd stood at 1.34 nM, the koff worked out at 0.000246 s⁻¹ and the kon was determined as 184000 M⁻¹ s⁻¹. Moreover, the t½ turned out to be 47 min.

Consider B4, for which the “100 nM natural Bet v 1 Bound (RU)” value was found to be 69 RU, the Kd is 1.22 nM, the koff was found to be 0.000149 s⁻¹ and the kon came out at 122000 M⁻¹ s⁻¹. Besides, the t½ was 78 min.

Regarding B5, the “100 nM natural Bet v 1 Bound (RU)” value was found to be 63 RU, the Kd came to 3.79 nM, the koff was determined as 0.00107 s⁻¹ and the kon was determined as 281000 M⁻¹ s⁻¹. The t½ is 11 min.

Regarding B6, the “100 nM natural Bet v 1 Bound (RU)” value is 61 RU, binding was characterised by a dissociation constant (Kd) of 1.19 nM, the koff is 0.000469 s⁻¹ and the kon was determined as 394000 M⁻¹ s⁻¹. The same molecule came in with a t½ of 25 min.

As to B7, the “100 nM natural Bet v 1 Bound (RU)” value was determined as 71 RU, the Kd stood at 1 nM, the koff was 0.000329 s⁻¹ and the on-rate (kon) is 329000 M⁻¹ s⁻¹. Further, the t½ is 35 min.

In another experiment the target is T2, Hazel (Cor A 1, MyBiosource, Cat# …). Nature of the experiment: SPR Biacore 4000, mAb captured by anti-human Fc, 25 C. (In SPR one partner is held on a chip, and binding of the other changes the refractive index at the surface.);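 further: allergen analyte binding to captured, purified anti-Bet v 1 monoclonal antibodies, SPR in HEPES-buffered saline running buffer with EDTA and Tween-20 at pH 7.4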
Experimental: Equilibrium dissociation constants (KD) for different related allergens binding to purified anti-Bet v 1 monoclonal antibodies were determined using a real-time surface plasmon resonance biosensor (SPR-Biacore) on a Biacore 4000 instrument. All binding studies were performed in 10 mM HEPES, 150 mM NaCl, 3 mM EDTA, and 0.05% v/v surfactant Tween-20, pH 7.4 (HBS-ET) running buffer at 25° C. […] Association (kₐ) and dissociation (kd) rate constants were determined by fitting the real-time binding sensorgrams to a 1:1 binding model with mass transport limitation using Scrubber 2.0c curve-fitting software. Binding dissociation equilibrium constants (KD) and dissociative half-lives (t½) were calculated from the kinetic rate constants as:
With B8, the “100 nM Analyte Bound (RU)” value was -1 RU.

As to B9, the “100 nM Analyte Bound (RU)” value turned out to be 0 RU and the binding result is reported as “no binding (tested: 100 nM)”.

Regarding B10, the “100 nM Analyte Bound (RU)” value is 0 RU and the binding result is “no binding (tested: 100 nM)”.

For the molecule B11, the “100 nM Analyte Bound (RU)” value turned out to be 0 RU and the binding result was “no binding (tested: 100 nM)”.

Regarding B12, the “100 nM Analyte Bound (RU)” value is 0 RU and the binding result was “no binding (tested: 100 nM)”.

Turning to B13, the “100 nM Analyte Bound (RU)” value was 0 RU and the binding result is “no binding (tested: 100 nM)”.

Regarding B14, the “100 nM Analyte Bound (RU)” value was found to be 0 RU and the binding result is recorded as “no binding (tested: 100 nM)”.

The next experiment has as its target T1, natural Bet v 1. The experiment can be described thus: SPR Biacore 4000, mAb captured on anti-human Fc, 37C.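 Further: kinetic rate constants from SPR sensorgrams fitted to a 1:1 model with mass transport limitation, HBS-ET buffer pH 7.4, KD and t½ derived from the rate constants.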
Experimental: as §1
Turning to B1, the “100 nM natural Bet v 1 Bound (RU)” value came out at 80 RU, the Kd was 5.48 nM, the koff was 0.00147 s⁻¹ and the kon was 268000 M⁻¹ s⁻¹. The molecule also yielded a t½ of 7.9 min.

As to B2, the “100 nM natural Bet v 1 Bound (RU)” value was determined as 67 RU, binding was characterised by a dissociation constant (Kd) of 9.48 nM, the koff was found to be 0.00093 s⁻¹ and the kon is 98100 M⁻¹ s⁻¹. In addition, the t½ was determined as 12 min.

As for B3, the “100 nM natural Bet v 1 Bound (RU)” value was 84 RU, the Kd worked out at 2.7 nM, the koff turned out to be 0.000792 s⁻¹ and the kon worked out at 293000 M⁻¹ s⁻¹. Further, the t½ turned out to be 15 min.

As for B4, the “100 nM natural Bet v 1 Bound (RU)” value turned out to be 90 RU, the dissociation constant Kd turned out to be 1.86 nM, the koff stood at 0.000441 s⁻¹ and the kon worked out at 237000 M⁻¹ s⁻¹. Besides, the t½ was determined as 26 min.

With B5, the “100 nM natural Bet v 1 Bound (RU)” value turned out to be 71 RU; the affinity, expressed as Kd, was 7.77 nM; the koff turned out to be 0.0029 s⁻¹; the kon was determined as 373000 M⁻¹ s⁻¹. This molecule displayed a t½ of 3.9 min.

Regarding B6, the “100 nM natural Bet v 1 Bound (RU)” value came out at 74 RU, the equilibrium dissociation constant (Kd) was 1.9 nM, the koff worked out at 0.00119 s⁻¹ and the kon was 627000 M⁻¹ s⁻¹. The same molecule yielded a t½ of 10 min.

As to B7, the “100 nM natural Bet v 1 Bound (RU)” value is 87 RU, the Kd came to 2.52 nM, the koff was found to be 0.00122 s⁻¹ and the kon came out at 485000 M⁻¹ s⁻¹. Also, the t½ stood at 9.5 min.
